Test results: patent publication US20250313611A1 (VIB VZW, published 2025)

T1: recombinant MERS-COV spike protein (MERS-CoV, UniProt K9N5Q8 18-1291)
T1 sequence: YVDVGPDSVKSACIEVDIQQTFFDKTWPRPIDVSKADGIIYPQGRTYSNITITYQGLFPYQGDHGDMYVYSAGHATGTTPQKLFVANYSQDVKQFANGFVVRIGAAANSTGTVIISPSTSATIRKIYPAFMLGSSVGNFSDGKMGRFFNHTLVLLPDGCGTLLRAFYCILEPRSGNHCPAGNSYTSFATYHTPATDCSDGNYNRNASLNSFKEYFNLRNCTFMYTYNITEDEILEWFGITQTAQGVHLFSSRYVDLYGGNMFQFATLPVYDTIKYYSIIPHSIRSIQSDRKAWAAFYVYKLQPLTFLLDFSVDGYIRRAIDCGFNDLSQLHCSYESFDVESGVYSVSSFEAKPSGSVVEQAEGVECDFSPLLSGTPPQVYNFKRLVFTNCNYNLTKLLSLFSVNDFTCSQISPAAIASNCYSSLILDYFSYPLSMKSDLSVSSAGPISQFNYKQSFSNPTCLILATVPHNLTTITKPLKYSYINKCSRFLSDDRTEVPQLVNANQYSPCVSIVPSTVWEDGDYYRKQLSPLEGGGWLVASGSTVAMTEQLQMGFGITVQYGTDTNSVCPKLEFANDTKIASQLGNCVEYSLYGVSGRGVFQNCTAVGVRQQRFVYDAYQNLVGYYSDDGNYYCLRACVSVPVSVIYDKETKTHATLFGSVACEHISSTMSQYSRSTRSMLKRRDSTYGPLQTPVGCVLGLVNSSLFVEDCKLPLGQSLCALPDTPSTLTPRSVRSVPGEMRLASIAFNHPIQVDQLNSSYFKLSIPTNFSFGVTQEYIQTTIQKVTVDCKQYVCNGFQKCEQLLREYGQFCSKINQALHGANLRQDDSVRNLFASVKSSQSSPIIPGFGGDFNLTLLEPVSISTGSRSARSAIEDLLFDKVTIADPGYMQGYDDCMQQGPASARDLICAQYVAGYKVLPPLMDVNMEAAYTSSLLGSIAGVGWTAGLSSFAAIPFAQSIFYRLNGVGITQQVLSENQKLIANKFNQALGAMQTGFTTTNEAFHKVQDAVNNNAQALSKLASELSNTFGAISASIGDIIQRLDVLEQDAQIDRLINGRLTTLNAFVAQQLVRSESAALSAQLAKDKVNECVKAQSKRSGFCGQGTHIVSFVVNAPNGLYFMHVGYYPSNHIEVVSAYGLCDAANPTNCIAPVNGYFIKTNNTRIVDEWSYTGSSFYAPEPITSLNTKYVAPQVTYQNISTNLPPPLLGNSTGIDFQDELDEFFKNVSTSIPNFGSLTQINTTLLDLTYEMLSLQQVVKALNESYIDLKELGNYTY

T2: recombinant HKU1 spike protein (HCoV-HKU1, UniProt Q5MQD0 13-1276)
T2 sequence: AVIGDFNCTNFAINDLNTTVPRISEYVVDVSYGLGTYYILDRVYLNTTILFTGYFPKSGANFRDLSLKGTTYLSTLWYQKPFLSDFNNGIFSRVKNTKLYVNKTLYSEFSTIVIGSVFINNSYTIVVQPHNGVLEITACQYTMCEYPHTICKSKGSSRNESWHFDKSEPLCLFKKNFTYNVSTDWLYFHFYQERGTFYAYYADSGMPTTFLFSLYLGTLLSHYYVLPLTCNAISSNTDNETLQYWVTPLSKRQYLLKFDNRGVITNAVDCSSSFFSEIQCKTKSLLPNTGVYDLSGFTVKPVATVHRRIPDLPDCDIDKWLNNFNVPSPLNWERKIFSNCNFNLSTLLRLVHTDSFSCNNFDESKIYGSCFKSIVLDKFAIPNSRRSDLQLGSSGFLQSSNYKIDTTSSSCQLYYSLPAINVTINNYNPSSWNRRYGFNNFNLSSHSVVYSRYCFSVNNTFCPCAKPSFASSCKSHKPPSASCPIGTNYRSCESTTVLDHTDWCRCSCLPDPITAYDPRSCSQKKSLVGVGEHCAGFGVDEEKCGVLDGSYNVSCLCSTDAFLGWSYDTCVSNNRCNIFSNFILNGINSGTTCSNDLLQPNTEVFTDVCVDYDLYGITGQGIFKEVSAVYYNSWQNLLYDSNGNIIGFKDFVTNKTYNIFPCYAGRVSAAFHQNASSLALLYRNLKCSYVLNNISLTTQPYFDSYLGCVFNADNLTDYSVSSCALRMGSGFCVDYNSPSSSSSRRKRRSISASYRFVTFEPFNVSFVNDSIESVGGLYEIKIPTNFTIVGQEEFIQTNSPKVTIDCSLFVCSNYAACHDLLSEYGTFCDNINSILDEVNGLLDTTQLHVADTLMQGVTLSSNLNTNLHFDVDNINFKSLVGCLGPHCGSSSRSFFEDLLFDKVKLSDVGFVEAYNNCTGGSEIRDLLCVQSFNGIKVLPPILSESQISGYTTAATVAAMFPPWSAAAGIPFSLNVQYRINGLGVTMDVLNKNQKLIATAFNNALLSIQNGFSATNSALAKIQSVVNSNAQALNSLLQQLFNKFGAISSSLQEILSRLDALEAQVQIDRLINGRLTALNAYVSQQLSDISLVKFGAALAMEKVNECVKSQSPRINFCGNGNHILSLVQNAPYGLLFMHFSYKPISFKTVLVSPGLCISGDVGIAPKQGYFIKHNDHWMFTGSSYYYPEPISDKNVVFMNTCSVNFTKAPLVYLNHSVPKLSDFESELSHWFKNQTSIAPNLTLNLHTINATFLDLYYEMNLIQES


Experiments:
[1] = biological target: T1, recombinant MERS-COV spike protein; assay: ELISA, periplasmic extract 1/10, heat map of binding (%)
[2] = biological target: T2, recombinant HKU1 spike protein; assay: as above
BSA = biological target: T3, BSA (bovine, UniProt P02769); assay: ELISA, coated BSA, dilution series, OD450 [1/3]
T3 construct: coated control antigen
T3 sequence (P02769 25-607 limits assumed): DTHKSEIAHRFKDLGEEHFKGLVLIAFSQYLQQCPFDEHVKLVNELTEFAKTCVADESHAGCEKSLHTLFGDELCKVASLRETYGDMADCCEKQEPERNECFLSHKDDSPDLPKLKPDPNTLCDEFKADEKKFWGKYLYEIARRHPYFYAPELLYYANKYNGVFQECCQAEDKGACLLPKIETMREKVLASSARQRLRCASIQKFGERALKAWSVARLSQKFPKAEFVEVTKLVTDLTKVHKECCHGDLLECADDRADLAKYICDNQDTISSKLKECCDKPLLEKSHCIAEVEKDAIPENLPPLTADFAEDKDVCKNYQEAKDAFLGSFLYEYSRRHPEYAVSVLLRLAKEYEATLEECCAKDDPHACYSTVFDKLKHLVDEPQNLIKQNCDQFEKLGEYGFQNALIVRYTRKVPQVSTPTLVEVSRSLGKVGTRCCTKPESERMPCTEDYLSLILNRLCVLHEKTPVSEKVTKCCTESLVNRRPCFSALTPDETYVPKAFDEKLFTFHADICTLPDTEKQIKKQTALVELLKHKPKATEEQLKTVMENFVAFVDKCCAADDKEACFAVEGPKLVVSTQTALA

Binder | binding result [1] | binding result [2] | binding result (BSA)
VHH R3_C4 (VHH) VHH: QVQLQESGGGLVQAGDSLRLSCAVSGRPFSTYTMGWFRQAPGKEREFVAAMRWSGGTIYYADSVKGRFTISRDNDKNTVNLEMNSLKPEDTAVYYCAAAYVSKANYGSLWYRASGLYDYWGQGTQVTVSS | no binding (tested: extract 1/10, concentration not given) | no binding (tested: extract 1/10, concentration not given) | –
VHH R3_DC2 (VHH) VHH: QVQLQESGGGLVQTGDSLRLSCAVSGRPFSTYTMGWFRQAPGKEREFVASMRWSGGTKYYSDSVKGRFSISRDNDQNTVNLQMNSLKPEDTAVYYCAAAYVSKANYGSLWYRNSGLYDYWGQGTQVTVSS | no binding (tested: extract 1/10, concentration not given) | no binding (tested: extract 1/10, concentration not given) | –
VHH R3_DC9 (VHH) VHH: QVQLQESGGGLVQTGDSLRLSCAVSGRPFSTYTMGWFRQAPGKEREFVASMRWSGGTMYYSDSVKGRFTISRDNDKNTVNLQMNSLKPEDTAVYYCAAAYVSKANYGSLWYRNSGLYDYWGQGTQVTVSS | no binding (tested: extract 1/10, concentration not given) | no binding (tested: extract 1/10, concentration not given) | –
VHH R3_DC20 (VHH) VHH: QVQLQESGGGLVQAGDSLRLSCAVSGRPFSTYTMGWFRQAPGKEREFVAAMRWSGGTIYYADSVKGRFTISRDNAQNTVNLQMNSLEPEDTAVYYCAAAYVSKANYGSLWYRNSGLYDYWGQGTQVTVSS | no binding (tested: extract 1/10, concentration not given) | no binding (tested: extract 1/10, concentration not given) | no binding (tested: 10 µg/ml)
VHH R4_DC9 (VHH) VHH: QVQLQESGGGLVQAGDSLRLSCAASGRIFSTYTMGWFRQAPGMEREFVAAIRWSGSTVYYADSVKGRFTISRDNAKNTVYLQMNSLKPEDTAVYYCAAARVSKANYGTLWYRASGLYDYWGQGTQVTVSS | no binding (tested: extract 1/10, concentration not given) | no binding (tested: extract 1/10, concentration not given) | –
VHH R4_DC13 (VHH) VHH: QVQLQESGGGLVQTGDSLRLSCAVSGRPFSTYTMGWFRQAPGKEREFVASMRWSGGTVYYSDSVKGRFTISRDNDKNTVNLQMNNLKPEDTAVYYCAAAYVSKANYGSFWYRNSDLYDYWGQGTQVTVSS | no binding (tested: extract 1/10, concentration not given) | no binding (tested: extract 1/10, concentration not given) | –
VHH R4_DC20 (VHH) VHH: QVQLQESGGGLVQTGDSLRLSCAVSGRPFSTYTMGWFRQAPGKEREFVASMRWSGGTMNYADSVKGRFTISRDNDQNTVNLQMNSLKPEDTAVYYCAAAYVSKANYGSLWYRNSGLYDYWGQGTQVTVSS | no binding (tested: extract 1/10, concentration not given) | no binding (tested: extract 1/10, concentration not given) | no binding (tested: 10 µg/ml)
VHH R3_DC23 (VHH) VHH: QVQLQESGGGLVQAGDSLTLSCAVSGRIFSTYTMGWFRQAPGKEREFVAAVRWGAGTIYYADSMKGRFTISRDSAKNTVDLQMNSTKPEDTAVYYCGAAYVSKANYGSLWYQDSRRYDYWGQGTQVTVSS | no binding (tested: extract 1/10, concentration not given) | no binding (tested: extract 1/10, concentration not given) | no binding (tested: 10 µg/ml)
VHH R4_DC6 (VHH) VHH: QVQLQESGGGLVQAGDSLRLSCAASGRILSTFTMGWFRQAPGKEREFVAAMRWNGGTKNYADSVKGRFTISRDNANSVVYLQMNSTKPEDTAVYYCAAAYVSKANYGSLWYRTPSLYDYWGQGTQVTVSS | no binding (tested: extract 1/10, concentration not given) | no binding (tested: extract 1/10, concentration not given) | –
VHH R4_DC16 (VHH) VHH: QVQLQESGGGLVQAGDSLRLSCAVSGRPFSTYTMGWFRQAPGKEREFVAAMRWSGGTIYYADSVKGRFTISRDNAQNTVNLQMNSLKPEDTAVYYCAAAYVSKANYGSSWYRNSGLYDYWGQGTQVTVSS | no binding (tested: extract 1/10, concentration not given) | no binding (tested: extract 1/10, concentration not given) | –
